Assay results from the supplement of paper PMC7125110.
± gives the standard error. Fewer inactive variants are shown than the library holds.

B1: glmS ribozyme (parent)
chain: AUAAAAGCGCCAGAACUACAGAAAUGUAGUUGACGAGGAGGAGGUUUAUCGAAUUUUCGGCGGAUGCCUCCAAA

Key:
Conditions in all cases: with glucosamine-6-phosphate
glucosamine-6-phosphate [1] = variants of: B1; test: self-cleavage kobs at 40 uM GlcN6P; higher = faster cleavage; RNA array
Outline: (§1)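 Tracking of barcoded ribozyme variants used a hybridised Cy3 probe at 37 °C, after in situ transcription by E. coli RNA polymerase on sequenced MiSeq chips. The flowed solution held 40 μM to 10 mM glucosamine-6-phosphate in HEPES/KCl/Mg(OAc)2 buffer, and imaging ran over ~14 h. kobs was taken from exponential decay fits of normalised per-tile medians, and kcat and KM from weighted Michaelis–Menten fits.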

glucosamine-6-phosphate [2] = variants of: B1; test: self-cleavage kobs at 640 uM GlcN6P; higher = faster cleavage; RNA array
Outline: as §1

glucosamine-6-phosphate [3] = variants of: B1; test: self-cleavage kobs at 2500 uM GlcN6P; higher = faster cleavage; RNA array
Outline: as §1

glucosamine-6-phosphate [4] = variants of: B1; test: self-cleavage kobs at 10000 uM GlcN6P; higher = faster cleavage; RNA array
Outline: as §1

glucosamine-6-phosphate [5] = variants of: B1; test: self-cleavage kobs at 160 uM GlcN6P; higher = faster cleavage; RNA array
Outline: as §1

| Variant | self-cleavage kobs at 40 uM GlcN6P (glucosamine-6-phosphate [1]) [s⁻¹] | self-cleavage kobs at 640 uM GlcN6P (glucosamine-6-phosphate [2]) [s⁻¹] | self-cleavage kobs at 2500 uM GlcN6P (glucosamine-6-phosphate [3]) [s⁻¹] | self-cleavage kobs at 10000 uM GlcN6P (glucosamine-6-phosphate [4]) [s⁻¹] | self-cleavage kobs at 160 uM GlcN6P (glucosamine-6-phosphate [5]) [s⁻¹] |
| --- | --- | --- | --- | --- | --- |
| G38C A39U | < 1e-05 | < 1e-05 |  |  |  |
| C11A G29U C67G C68G | 3.88e-05 ± 1.7e-05 |  |  |  |  |
| U54A G66A C67G | 5.57e-05 ± 1.5e-05 |  | 0.000119 ± 4.7e-05 | 0.000693 ± 0.00017 |  |
| C34U A52G C68G | 0.000541 ± 0.00018 |  |  | 0.000197 ± 6e-05 |  |
| G7U U69G | 0.000114 ± 2.1e-05 | 0.000299 ± 7e-05 | 6.87e-05 ± 1.8e-05 | 0.000226 ± 8.9e-05 |  |
| C10A G43A U45C | < 1e-05 |  |  |  |  |
| G35A A36C | < 1e-05 | < 1e-05 | < 1e-05 |  | < 1e-05 |
| G35U G40C | < 1e-05 | < 1e-05 | < 1e-05 | < 1e-05 | < 1e-05 |
| A6G U57C | < 1e-05 | < 1e-05 | < 1e-05 |  | < 1e-05 |
| G29C U54A | 6.64e-05 ± 1.5e-05 | 0.000499 ± 8.4e-05 | 0.000928 ± 0.00025 | 0.00381 ± 0.00046 |  |
| G41U U54A | 2.71e-05 ± 1.1e-05 | 0.000174 ± 2.6e-05 | 0.000426 ± 7.7e-05 | 0.000144 ± 1.7e-05 | 0.000104 ± 1.6e-05 |
| G60U G62A | < 1e-05 | < 1e-05 |  |  | < 1e-05 |
| C8G U65A | < 1e-05 |  |  |  |  |
| C8A G62A | < 1e-05 | < 1e-05 |  | < 1e-05 | < 1e-05 |
| C34G A39C U46G | < 1e-05 |  | < 1e-05 | < 1e-05 | < 1e-05 |
| G13A G51C | < 1e-05 |  |  | < 1e-05 | < 1e-05 |
| C8U U57C | < 1e-05 | < 1e-05 | < 1e-05 | < 1e-05 | < 1e-05 |
| G43A G51U | < 1e-05 |  | < 1e-05 |  | < 1e-05 |
| U54G G63C | < 1e-05 | < 1e-05 | < 1e-05 | < 1e-05 |  |
| A6U U31C G41A | < 1e-05 |  |  | < 1e-05 |  |
| A12G C16G G43C | < 1e-05 |  |  |  |  |
| A6C C8U A15G | < 1e-05 |  |  | < 1e-05 |  |
| G41C G60C | < 1e-05 | < 1e-05 | < 1e-05 | < 1e-05 | < 1e-05 |

| Variant | self-cleavage kobs at 40 uM GlcN6P (glucosamine-6-phosphate [1]) [s⁻¹] | self-cleavage kobs at 640 uM GlcN6P (glucosamine-6-phosphate [2]) [s⁻¹] | self-cleavage kobs at 2500 uM GlcN6P (glucosamine-6-phosphate [3]) [s⁻¹] | self-cleavage kobs at 10000 uM GlcN6P (glucosamine-6-phosphate [4]) [s⁻¹] | self-cleavage kobs at 160 uM GlcN6P (glucosamine-6-phosphate [5]) [s⁻¹] |
| --- | --- | --- | --- | --- | --- |
| C16G G51C U55A U65A | < 1e-05 |  | < 1e-05 | < 1e-05 |  |
| A12U C16G | 0.000539 ± 9e-05 | 0.00491 ± 0.0008 | 0.00786 ± 0.0024 | 0.0117 ± 0.0031 | 0.000549 ± 0.00013 |
| G13U U49A C58A C68U C70U | < 1e-05 |  |  |  |  |
| U54A G62U | < 1e-05 |  | < 1e-05 | < 1e-05 |  |
| C10U U46G | < 1e-05 |  |  |  | < 1e-05 |
| U31C G37C | < 1e-05 |  |  |  | < 1e-05 |
| G7A A15G C61U C71U | < 1e-05 |  | < 1e-05 |  | < 1e-05 |
| C11U G60U | < 1e-05 | < 1e-05 | < 1e-05 | < 1e-05 |  |
| A6G A42G C50A U54C C70G | < 1e-05 | < 1e-05 | < 1e-05 | < 1e-05 | < 1e-05 |
| G7A C16A U31C G32U G41C | < 1e-05 |  |  |  |  |
| G9C G63A | < 1e-05 | < 1e-05 |  |  |  |
| C61U G62C | < 1e-05 | < 1e-05 | < 1e-05 | < 1e-05 |  |
| G32C U57C | < 1e-05 | < 1e-05 |  |  | < 1e-05 |
| G7A U46C | < 1e-05 | < 1e-05 |  | < 1e-05 |  |
| A33U A48C | < 1e-05 | < 1e-05 | < 1e-05 | < 1e-05 | < 1e-05 |
| A6G C11U G32C | < 1e-05 |  |  |  |  |
| G38U A39G G43U G44C | < 1e-05 |  |  | < 1e-05 |  |
| G29U A52C G66A | < 1e-05 |  |  |  |  |
| C19A C50G | 5.77e-05 ± 2.2e-05 | 0.000594 ± 0.00013 | 6.17e-05 ± 2.2e-05 | 4.18e-05 ± 1.5e-05 | 0.000364 ± 9.5e-05 |
| G7U U30G C61G G62U | < 1e-05 |  |  |  |  |
| A6C A12G U56C | < 1e-05 |  |  | < 1e-05 |  |
| A39C C50U A64G | < 1e-05 |  |  |  |  |
| C11G A53C | < 1e-05 | < 1e-05 | < 1e-05 | < 1e-05 | < 1e-05 |

| Variant | self-cleavage kobs at 40 uM GlcN6P (glucosamine-6-phosphate [1]) [s⁻¹] | self-cleavage kobs at 640 uM GlcN6P (glucosamine-6-phosphate [2]) [s⁻¹] | self-cleavage kobs at 2500 uM GlcN6P (glucosamine-6-phosphate [3]) [s⁻¹] | self-cleavage kobs at 10000 uM GlcN6P (glucosamine-6-phosphate [4]) [s⁻¹] | self-cleavage kobs at 160 uM GlcN6P (glucosamine-6-phosphate [5]) [s⁻¹] |
| --- | --- | --- | --- | --- | --- |
| C10U C67U C70U | < 1e-05 |  |  | < 1e-05 |  |
| C11G U54A | < 1e-05 |  |  |  |  |
| G44U C50U A53C | < 1e-05 | < 1e-05 | < 1e-05 |  |  |
| G38C A39U A42G U54A C67G C70U | < 1e-05 |  |  |  |  |
| C61A U69A | < 1e-05 |  |  | < 1e-05 |  |
| G7C A52C | < 1e-05 | < 1e-05 | < 1e-05 |  | < 1e-05 |
| G13U G38C G43U | < 1e-05 |  |  | < 1e-05 |  |
| C11U A12U U65C C68G | < 1e-05 |  |  | < 1e-05 |  |
| C16G G37A G40A A48G | < 1e-05 |  |  | < 1e-05 |  |
| G9A C70U | < 1e-05 | < 1e-05 |  | 2.28e-05 ± 1e-05 |  |
| A33G A42U | < 1e-05 | < 1e-05 | < 1e-05 | < 1e-05 | < 1e-05 |
| C16U U55G | 0.000446 ± 7.1e-05 | 0.00467 ± 0.0013 | 0.00554 ± 0.0013 | 0.0464 ± 0.01 | 0.00102 ± 0.00026 |
| C16U G63C | < 1e-05 | < 1e-05 |  | < 1e-05 |  |
| C19A G29U C58A C67G | 3.09e-05 ± 1.3e-05 |  |  | 6.68e-05 ± 1.4e-05 |  |
| C11A G35C | < 1e-05 | < 1e-05 | < 1e-05 |  | < 1e-05 |
| A42U A52U A64U G66U | < 1e-05 |  |  |  |  |
| U49G G51A G63A | < 1e-05 |  |  | < 1e-05 |  |
| C50G G62A C70U | 9.58e-05 ± 2.3e-05 | 0.000184 ± 4.7e-05 | 0.000549 ± 0.00012 | 0.000104 ± 1.6e-05 |  |
| G38A G41U U46C | < 1e-05 |  |  | < 1e-05 |  |
| C58U U65G | < 1e-05 | < 1e-05 |  |  | < 1e-05 |
| G37A G38U C71U | < 1e-05 |  |  |  |  |
| C11G G13A G41U U45G G66A | < 1e-05 |  |  |  |  |
| G32U A48U | < 1e-05 | < 1e-05 |  |  | < 1e-05 |

| Variant | self-cleavage kobs at 40 uM GlcN6P (glucosamine-6-phosphate [1]) [s⁻¹] | self-cleavage kobs at 640 uM GlcN6P (glucosamine-6-phosphate [2]) [s⁻¹] | self-cleavage kobs at 2500 uM GlcN6P (glucosamine-6-phosphate [3]) [s⁻¹] | self-cleavage kobs at 10000 uM GlcN6P (glucosamine-6-phosphate [4]) [s⁻¹] | self-cleavage kobs at 160 uM GlcN6P (glucosamine-6-phosphate [5]) [s⁻¹] |
| --- | --- | --- | --- | --- | --- |
| U46C A53C U55A U56G G62C | < 1e-05 |  |  |  |  |
| C8G U54C | < 1e-05 | < 1e-05 | < 1e-05 | < 1e-05 | < 1e-05 |
| A6G G41U U57G G59C C71U | < 1e-05 | < 1e-05 | < 1e-05 | < 1e-05 | < 1e-05 |
| G9C A52U | < 1e-05 | < 1e-05 | < 1e-05 | < 1e-05 | < 1e-05 |
| A33C C67G | < 1e-05 |  |  | < 1e-05 | < 1e-05 |
| A52C U55C | < 1e-05 |  |  |  | < 1e-05 |
| U47G U49G C50G G51A C61A | 9.02e-05 ± 2.3e-05 |  |  | 0.000142 ± 3.3e-05 |  |
| A15C A33U C61A | < 1e-05 |  |  |  |  |
| C10G C50A | < 1e-05 | < 1e-05 |  |  |  |
| G29U A36U A52G | < 1e-05 |  |  |  |  |
| C8A A33U C34A U56A | < 1e-05 |  |  |  |  |
| G7C C8U A39U A53U | < 1e-05 |  |  | < 1e-05 |  |
| A12U G37A C61G C70A | < 1e-05 |  |  | < 1e-05 |  |
| G7A C10U U45G C70G | < 1e-05 | < 1e-05 | < 1e-05 | < 1e-05 |  |
| G59A G62C | < 1e-05 | < 1e-05 | < 1e-05 | < 1e-05 | < 1e-05 |
| C8A A53C | < 1e-05 | < 1e-05 | < 1e-05 | < 1e-05 | < 1e-05 |
| G21U G32A C50G U57G C70G | 0.000174 ± 3.9e-05 |  |  | 0.000301 ± 6.1e-05 |  |
| G32C G35C | < 1e-05 | < 1e-05 |  | < 1e-05 |  |
| A15C G59U | < 1e-05 | < 1e-05 |  |  | < 1e-05 |
| G32C U46C | < 1e-05 |  |  |  |  |
| U45A U55G | 0.00178 ± 0.00026 | 0.00532 ± 0.0012 | 0.00894 ± 0.0023 | 0.0415 ± 0.013 | 0.00389 ± 0.0012 |
| G40U G59C | < 1e-05 | < 1e-05 |  |  |  |
